In patent US11352399B2, “Peptide for toll-like receptor (TLR) inhibition and pharmaceutical composition comprising same” (GENESEN CO., LTD., priority 2017, dated 2022):
Primed or numbered codes have the meaning given here. Ends that are not written are not given here. FITC′ = fluorescein isothiocyanate

Columns and labels:
hPBMC cells = assay: NO secretion in LPS-treated hPBMC cells; format: cell-based, human; settings: together with LPS, FIG. 12(b)
hTLR4 (human TLR4) = target: T1, hTLR4 (human TLR4) (Homo sapiens, UniProt O00206); assay: SEAP activity (NF-κB activity) in HEK-Blue-hTLR4 cells; format: cell-based; settings: for NF-κB activity (SEAP activity): together with LPS, FIG. 12(a); for SEAP activity, CPP sequence not linked: 12.5, 25, 50 μM, FIG. 1(b)
T1 construct: host or cells: HEK-Blue-hTLR4 (HEK293-derived reporter line)
Description: HEK-Blue™-hTLR4 cells were dispensed into 24-well plates (BD Biosciences) to a cell number of 2×10^5 cells/well, and incubation was performed overnight. The next day, the culture was removed and medium replacement was performed. Then, a portion (200 μl) of the culture was transferred to a microcentrifuge tube and heated at 65° C. for 10 minutes using a heating block (FINEPCR. Co., Seoul, Korea). Subsequently, the culture was transferred to 96-well plates (BD Biosciences), and absorbance was measured at 405 nm using the HEK-Blue™ detection kit (InvivoGen) and a microplate reader spectrophotometer (Molecular Devices Inc., Silicon Valley, Calif., USA), to analyze an expression level of SEAP (secreted alkaline phosphatase).
To this end, the inducible secreted embryonic alkaline phosphatase (SEAP) reporter gene was placed under the control of an IL-12 p40 minimal promoter (IL-12 p40 is produced by activation of NF-κB and AP-1 (activator protein 1) after stimulation of TLR4) which contains sites where DNAs of NF-κB and AP-1 bind. Then, HEK-Blue™-hTLR4 cells were treated with varying concentrations of TIP or TIP (TIP W/O CPP), to which CPP is not linked, at 12.5, 25, 50 μM, and then an average value of SEAP activity was calculated to measure TLR4 activity. The results are illustrated in FIGS. 1(a) and 1(b).
The results are illustrated in FIGS. 12(a) and 12(b).

MyD88 = target: T2, MyD88 (Homo sapiens, UniProt Q99836); assay: Confocal microscopy of TIP1-FITC and MyD88 in THP1 cells; format: cell-based; settings: TIP1-FITC and LPS
T2 construct: endogenous in cells; host or cells: THP1
Description: (§1) RAW 264.7 cells and THP1 cells were dispensed into 24-well plates to a cell number of 2×10^5 cells/well, and then grown in an incubator overnight. Subsequently, combined treatment with TIP1 and LPS was performed. After 24 hours, the RAW 264.7 cells and the THP1 cells were fixed with 3.7% formaldehyde (Sigma-Aldrich Co. LLC) for 15 minutes, and immersed into 0.2% Triton X-100 (AMRESCO, Solon, Ohio, USA) for 15 minutes. Then, washing with PBS was performed three times and blocking with 2% BSA solution was performed. The blocked cells were incubated for 2 hours with TIP1-FITC (25 μM; Peptron, Inc., Daejeon, Korea), p-p65, TLR4, Myd88, TOM20 (1:1000; Santa Cruz Biotechnology Inc.), and NLRP3 (Adipogen) antibodies. Then, washing with PBS was performed three times. Subsequently, the cells were incubated with AlexaFluor […] and/or 488 and/or 546-conjugated secondary antibodies (Invitrogen, Carlsbad, Calif., USA) for 1 hour, and washed three times with PBS. Subsequently, the cells were stained at room temperature for 15 minutes using 5 μM Hoechst 33258 (Sigma-Aldrich Co.), and the number of the fluorescently stained cells was counted using a confocal laser scanning microscope (LSM-700, Carl Zeiss MicroImaging GmbH). The images were analyzed using Zen 2009 software.
(§2) The results are illustrated in FIG. 13.

TLR4 = target: T3, TLR4 (Homo sapiens, UniProt O00206); assay: Confocal microscopy of TIP1-FITC and TLR4 in THP1 cells; format: cell-based; settings: TIP1-FITC and LPS
T3 construct: endogenous in cells; host or cells: THP1
Description: as §1, §2

T1 sequence (O00206 24-839): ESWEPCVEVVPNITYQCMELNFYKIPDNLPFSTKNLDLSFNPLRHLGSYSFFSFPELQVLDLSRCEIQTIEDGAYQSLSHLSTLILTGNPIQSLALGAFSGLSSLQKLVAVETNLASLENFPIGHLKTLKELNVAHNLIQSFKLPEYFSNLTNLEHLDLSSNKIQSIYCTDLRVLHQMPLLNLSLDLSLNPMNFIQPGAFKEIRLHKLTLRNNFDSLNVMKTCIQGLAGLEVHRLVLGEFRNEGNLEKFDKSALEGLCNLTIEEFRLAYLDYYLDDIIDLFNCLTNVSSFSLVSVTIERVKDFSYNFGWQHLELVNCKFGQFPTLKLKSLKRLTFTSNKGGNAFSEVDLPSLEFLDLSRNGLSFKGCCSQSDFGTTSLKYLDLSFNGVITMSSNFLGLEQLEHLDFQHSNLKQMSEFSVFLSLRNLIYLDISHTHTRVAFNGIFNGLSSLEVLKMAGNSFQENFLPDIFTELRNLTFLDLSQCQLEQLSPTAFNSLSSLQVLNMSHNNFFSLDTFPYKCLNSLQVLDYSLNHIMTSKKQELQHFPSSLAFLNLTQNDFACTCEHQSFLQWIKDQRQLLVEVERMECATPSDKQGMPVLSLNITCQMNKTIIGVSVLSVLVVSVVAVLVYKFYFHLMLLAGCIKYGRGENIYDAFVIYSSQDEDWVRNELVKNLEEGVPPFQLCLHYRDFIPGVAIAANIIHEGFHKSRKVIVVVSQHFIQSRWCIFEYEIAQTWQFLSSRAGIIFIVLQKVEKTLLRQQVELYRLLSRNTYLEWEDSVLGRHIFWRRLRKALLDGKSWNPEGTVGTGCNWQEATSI
T1 sequence (Q9Y6Y9 17-160 partner limits assumed): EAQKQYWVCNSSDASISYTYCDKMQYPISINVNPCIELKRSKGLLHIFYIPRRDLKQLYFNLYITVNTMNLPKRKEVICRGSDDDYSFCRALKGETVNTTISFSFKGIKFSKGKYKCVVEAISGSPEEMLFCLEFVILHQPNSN
T2 sequence (Q99836 whole entry): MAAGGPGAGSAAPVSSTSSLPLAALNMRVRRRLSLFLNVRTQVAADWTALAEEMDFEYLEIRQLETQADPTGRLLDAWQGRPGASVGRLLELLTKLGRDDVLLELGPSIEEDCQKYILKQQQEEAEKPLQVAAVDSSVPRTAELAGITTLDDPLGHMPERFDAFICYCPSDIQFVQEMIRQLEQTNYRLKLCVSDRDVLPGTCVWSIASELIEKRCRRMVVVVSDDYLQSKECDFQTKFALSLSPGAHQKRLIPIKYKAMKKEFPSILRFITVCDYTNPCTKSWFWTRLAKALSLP
T3 sequence (O00206 24-839): as the sequence (O00206 24-839) above

Substance: RQIKIWFQNRRMKWKKSHCR (TIP1-2)
- NO secretion level (hPBMC cells): also inhibited NO secretion
- NF-κB activity (SEAP activity) (hTLR4 (human TLR4)): also decreased NF-κB activity

Substance: RQIKIWFQNRRMKWKKTIPLLS (TIP2) [used as a control]
- LPS-induced SEAP activity (hTLR4 (human TLR4); TIP 12.5, 25, 50 μM, then LPS, FIG. 1(a)): unlike TIP2, TIP1 decreased LPS-induced SEAP activity

Substance: RQIKIWFQNRRMKWKKVLLI (TIP1-3)
- NO secretion level (hPBMC cells): no or insignificant changes were observed
- NF-κB activity (SEAP activity) (hTLR4 (human TLR4)): no or insignificant changes were observed

Substance: SHCRVLLI (Decoy peptide 1) [TIP1 W/O CPP]
- SEAP activity, CPP sequence not linked (hTLR4 (human TLR4)): neither TIP1 (TIP1 W/O CPP) nor TIP2 (TIP2 W/O CPP) changed SEAP activity

Substance: TIP1-FITC: TIP1 with fluorescein isothiocyanate (FITC) bound to the N-terminus ({FITC′}-RQIKIWFQNRRMKWKKSHCRVLLI)
- interaction of TIP1-FITC with MyD88 (MyD88): formed a weak bond
- interaction of TIP1-FITC with TLR4 (TLR4): strongly bound to each other

Substance: TIPLLS (Decoy peptide 2) [TIP2 W/O CPP]
- SEAP activity, CPP sequence not linked (hTLR4 (human TLR4)): neither TIP1 (TIP1 W/O CPP) nor TIP2 (TIP2 W/O CPP) changed SEAP activity
